Laboratory results reported in publication doi:10.1101/2021.07.27.453956 (bioRxiv, 2021).

B1: His6-Ctp, recombinant (SFiNX subunit) (natural protein)
chain: MSDRKAVIKNADMSEEMQQDAVDCATQALEKYNIEKDIAAYIKKEFDKKYNPTWHCIVGRNFGSYVTHETRHFIYFYLGQVAILLFKSG
B2: TwinStrep-MBP-Panx, full length, recombinant (SFiNX subunit) (natural protein)
chain: MEAPMKLEVKVENYVECGINEDEATPLREGTGETPPHAFACGVPMSGSGWCSDPEDGNLVHHSATPTSDEHLQPSLDTIEPKMEPKIKEDADNAMLDSLLADPFENNSPATLQTPADVKPNAMLDSVEQGSRSCELLPSEFSKRENLDDMDLFSLKAAKTLVPDEQQSFPQNDTPIDDPEAADLIAQKREILKMLEMTAENRKVKHKKKKHKKERSHRSNKHQEESRKRNHSNSSSDEGADDKNQFDCDYRGHKKYKNRRGSASSQNESSKERKLRDTELDYVPVRPDEHFIRPIKFSNLIERRPPQVEFNTVNLSKADKRSLAVARAELVLEQIQQKANKEEPPEFHMVDTICKLPVNESFRNQDCFENPSPICNNMNVVYKFNSTPGTRIDLSKWGLETVPEATKRLLRLLGIDVARLKELQSTVKPSQRILKLKKEQLEQGLAPTEEQETATLYKNAATQTERRTATRDAGTQVRLESKLNGAFWQNPHFDPMNLTQHQSNVMLALQEIYQTLPSATMAVKLSRALAPALAIIKGRQP

Assays:
[1] = biological target: Sov NTD (aa 14-90), C-terminal His tagged (D. melanogaster); experiment: ITC
[2] = biological target: B2; experiment: co-purification of a recombinant complex
[3] = biological target: Nxf2–Nxt1 heterodimer, recombinant (SFiNX subunits) (Drosophila, UniProt Q9VV73;Q9V3H8); experiment: co-purification of a recombinant complex
Nxf2–Nxt1 heterodimer, recombinant (SFiNX subunits), sequence (Q9VV73 whole entry, one chain of several): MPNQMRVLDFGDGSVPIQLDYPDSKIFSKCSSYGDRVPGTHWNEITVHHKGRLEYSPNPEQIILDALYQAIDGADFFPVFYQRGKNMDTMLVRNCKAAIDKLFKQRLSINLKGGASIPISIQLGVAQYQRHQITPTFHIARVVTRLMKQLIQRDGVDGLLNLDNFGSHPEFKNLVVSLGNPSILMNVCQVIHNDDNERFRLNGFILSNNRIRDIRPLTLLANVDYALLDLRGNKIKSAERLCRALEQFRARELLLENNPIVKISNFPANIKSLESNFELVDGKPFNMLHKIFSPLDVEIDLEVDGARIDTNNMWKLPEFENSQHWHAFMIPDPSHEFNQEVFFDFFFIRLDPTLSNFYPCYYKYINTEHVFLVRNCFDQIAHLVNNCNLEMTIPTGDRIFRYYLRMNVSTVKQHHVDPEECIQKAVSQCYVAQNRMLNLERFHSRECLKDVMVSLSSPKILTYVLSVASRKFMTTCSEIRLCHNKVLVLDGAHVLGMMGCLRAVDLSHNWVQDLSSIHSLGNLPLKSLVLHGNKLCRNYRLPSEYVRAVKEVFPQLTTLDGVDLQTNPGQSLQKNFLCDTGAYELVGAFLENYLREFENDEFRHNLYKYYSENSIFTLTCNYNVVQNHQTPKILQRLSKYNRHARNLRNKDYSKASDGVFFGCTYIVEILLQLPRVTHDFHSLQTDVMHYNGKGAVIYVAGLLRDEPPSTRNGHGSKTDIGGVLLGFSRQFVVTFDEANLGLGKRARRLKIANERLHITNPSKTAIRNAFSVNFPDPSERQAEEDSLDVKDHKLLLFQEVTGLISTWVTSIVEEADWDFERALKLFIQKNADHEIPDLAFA

## His-SUMO tagged Panx LxxLL peptide (aa 82-108), wildtype (from UniProt Q9W2H9 82-108)
[1]
  Kd: 870 nM

## B1
[2]
  binding result: binds

## B2
[3]
  binding result: binds
